Source: PMC9352680, “A comprehensive thermodynamic model for RNA binding by the Saccharomyces cerevisiae Pumilio protein PUF4”

T1: PUF4 RNA-binding domain (Saccharomyces cerevisiae, UniProt P25339 537-888)
T1 sequence: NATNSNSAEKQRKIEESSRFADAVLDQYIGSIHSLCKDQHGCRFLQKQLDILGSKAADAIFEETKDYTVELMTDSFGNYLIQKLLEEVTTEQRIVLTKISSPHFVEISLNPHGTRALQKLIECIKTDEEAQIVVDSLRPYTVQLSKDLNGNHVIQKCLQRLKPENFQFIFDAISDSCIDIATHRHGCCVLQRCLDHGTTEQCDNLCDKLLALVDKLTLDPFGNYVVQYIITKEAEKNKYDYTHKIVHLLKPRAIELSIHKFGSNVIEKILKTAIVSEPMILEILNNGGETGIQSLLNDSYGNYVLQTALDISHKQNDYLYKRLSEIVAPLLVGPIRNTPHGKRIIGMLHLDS


target: T1, PUF4 RNA-binding domain; test: Mg; RNA-MaP; 20 mM Na-HEPES pH 7.4, 30 mM KOAc, 0.75 mM MgCl2, 0.1% Tween-20, 5% glycerol, 0.1 mg/mL BSA, 2 mM DTT; 25 C; 0.0125-409.6 nM protein; settings: tags: N-His6-TEV cleaved; C-SNAP kept, Cy3B-labelled; label: tethered on chip by stalled RNA polymerase

Row | Binder | Kd [nM]
1 | UCUCUUACUGUAUAUAUGUCUCUU (ssRNA) [Id_ii_S1_P3E.2_K3.1_C3.2_[C-2A]_[T-1C]_H3.1_A3.1_F3.1_T3.2_[A10G]] | 17.2
2 | UCUCUUAGUGUAUAUAUUUCUCUU (ssRNA) [Id_ii_S1_P3E.2_K3.1_C3.2_[C-2A]_[T-1G]_H3.1_A3.1_F3.1_T3.2_[A10T]] | 10
3 | UCUCUUACUGUAUAUACGUCUCUU (ssRNA) [Id_ii_S1_P3E.2_K3.1_C3.2_[C-2A]_[T-1C]_H3.1_A3.1_F3.1_T3.2_[T9C]_[A10G]] | 45.4
4 | UCUCUUUUUGUAUAUAUUUCUCUU (ssRNA) [Id_ii_S1_P3E.2_K3.1_C3.2_[C-2T]_H3.1_A3.1_F3.1_T3.2_[A10T]] | 6.67
5 | UCUCUUUUUGUAUAUAUAUCUCUU (ssRNA) [Id_ii_S1_P3E.2_K3.1_C3.2_[C-2T]_H3.1_A3.1_F3.1_T3.2] | 4.57
6 | UCUCUUUAUGUAUAUAGCUCUCUU (ssRNA) [Id_ii_S1_P3E.2_K3.1_C3.2_[C-2T]_[T-1A]_H3.1_A3.1_F3.1_T3.2_[T9G]_[A10C]] | 6.81
7 | UCUCUUUUUGUAUAUAUCUCUCUU (ssRNA) [Id_ii_S1_P3E.2_K3.1_C3.2_[C-2T]_H3.1_A3.1_F3.1_T3.2_[A10C]] | 7.26
8 | UCUCUUACUGUAUAUAUCUCUCUU (ssRNA) [Id_ii_S1_P3E.2_K3.1_C3.2_[C-2A]_[T-1C]_H3.1_A3.1_F3.1_T3.2_[A10C]] | 9.47
9 | UCUCUUACUGUAUAUAUUUCUCUU (ssRNA) [Id_ii_S1_P3E.2_K3.1_C3.2_[C-2A]_[T-1C]_H3.1_A3.1_F3.1_T3.2_[A10T]] | 10.8
10 | UCUCUUAAUGUAUAUAUCUCUCUU (ssRNA) [Id_ii_S1_P3E.2_K3.1_C3.2_[C-2A]_[T-1A]_H3.1_A3.1_F3.1_T3.2_[A10C]] | 10.4
11 | UCUCUUAGUGUAUAUAUCUCUCUU (ssRNA) [Id_ii_S1_P3E.2_K3.1_C3.2_[C-2A]_[T-1G]_H3.1_A3.1_F3.1_T3.2_[A10C]] | 13.4
12 | UCUCUUUUUGUAUAUAAAUCUCUU (ssRNA) [Id_ii_S1_P3E.2_K3.1_C3.2_[C-2T]_H3.1_A3.1_F3.1_T3.2_[T9A]] | 10.5
13 | UCUCUUUAUGUAUAUAUCUCUCUU (ssRNA) [Id_ii_S1_P3E.2_K3.1_C3.2_[C-2T]_[T-1A]_H3.1_A3.1_F3.1_T3.2_[A10C]] | 9.65
14 | UCUCUUUUUGUAUAUAACUCUCUU (ssRNA) [Id_ii_S1_P3E.2_K3.1_C3.2_[C-2T]_H3.1_A3.1_F3.1_T3.2_[T9A]_[A10C]] | 9.6
15 | UCUCUUAUUGUAUAUAGUUCUCUU (ssRNA) [Id_ii_S1_P3E.2_K3.1_C3.2_[C-2A]_H3.1_A3.1_F3.1_T3.2_[T9G]_[A10T]] | 6.25
16 | UCUCUUAUUGUAUAUACUUCUCUU (ssRNA) [Id_ii_S1_P3E.2_K3.1_C3.2_[C-2A]_H3.1_A3.1_F3.1_T3.2_[T9C]_[A10T]] | 10.3

Row | Binder | Kd [nM]
17 | UCUCUUACUGUAUAUAGCUCUCUU (ssRNA) [Id_ii_S1_P3E.2_K3.1_C3.2_[C-2A]_[T-1C]_H3.1_A3.1_F3.1_T3.2_[T9G]_[A10C]] | 9.36
18 | UCUCUUAUUGUAUAUAGCUCUCUU (ssRNA) [Id_ii_S1_P3E.2_K3.1_C3.2_[C-2A]_H3.1_A3.1_F3.1_T3.2_[T9G]_[A10C]] | 12.1
19 | UCUCUUUCUCUAUUAUCUCUU (ssRNA) [Ib_S1_P4E.1_K4.1_C4.1_H4.1_[G2C]_[A4C]_A4.1_F4.1_T4.1] | > 2300
20 | UCUCUUUAUGUAUAUAUGUCUCUU (ssRNA) [Id_ii_S1_P3E.2_K3.1_C3.2_[C-2T]_[T-1A]_H3.1_A3.1_F3.1_T3.2_[A10G]] | 9.53
21 | UCUCUUAUUGUAUAUAUAUCUCUU (ssRNA) [Id_ii_S1_P3E.2_K3.1_C3.2_[C-2A]_H3.1_A3.1_F3.1_T3.2] | 4.87
22 | UCUCUUAGUGUAUAUAGUUCUCUU (ssRNA) [Id_ii_S1_P3E.2_K3.1_C3.2_[C-2A]_[T-1G]_H3.1_A3.1_F3.1_T3.2_[T9G]_[A10T]] | 6.52
23 | UCUCUUUAUGUAUAUAACUCUCUU (ssRNA) [Id_ii_S1_P3E.2_K3.1_C3.2_[C-2T]_[T-1A]_H3.1_A3.1_F3.1_T3.2_[T9A]_[A10C]] | 13
24 | UCUCUUAGUGUAUAUAAUUCUCUU (ssRNA) [Id_ii_S1_P3E.2_K3.1_C3.2_[C-2A]_[T-1G]_H3.1_A3.1_F3.1_T3.2_[T9A]_[A10T]] | 10.1
25 | UCUCUUUAUGUAUUAUCUCUU (ssRNA) [Ib_S1_P4E.1_K4.1_C4.1_H4.1_[G2A]_[A4G]_A4.1_F4.1_T4.1] | 36
26 | UCUCUUUUUGUAUAUAAGUCUCUU (ssRNA) [Id_ii_S1_P3E.2_K3.1_C3.2_[C-2T]_H3.1_A3.1_F3.1_T3.2_[T9A]_[A10G]] | 11.6
27 | UCUCUUAUUGUAUAUAUCUCUCUU (ssRNA) [Id_ii_S1_P3E.2_K3.1_C3.2_[C-2A]_H3.1_A3.1_F3.1_T3.2_[A10C]] | 8.52
28 | UCUCUUACUGUAUAUACAUCUCUU (ssRNA) [Id_ii_S1_P3E.2_K3.1_C3.2_[C-2A]_[T-1C]_H3.1_A3.1_F3.1_T3.2_[T9C]] | 22.8
29 | UCUCUUUUUGUAUUAUCUCUU (ssRNA) [Ib_S1_P4E.1_K4.1_C4.1_H4.1_[G2T]_[A4G]_A4.1_F4.1_T4.1] | 25.7
30 | UCUCUUUAUGUAUAUACCUCUCUU (ssRNA) [Id_ii_S1_P3E.2_K3.1_C3.2_[C-2T]_[T-1A]_H3.1_A3.1_F3.1_T3.2_[T9C]_[A10C]] | 15.5
31 | UCUCUUUCUGUAUAUAUUUCUCUU (ssRNA) [Id_ii_S1_P3E.2_K3.1_C3.2_[C-2T]_[T-1C]_H3.1_A3.1_F3.1_T3.2_[A10T]] | 5.64
